Molecular target: T1, Boi1 SH3 (BOI1_YEAST), P38041
T1 chain: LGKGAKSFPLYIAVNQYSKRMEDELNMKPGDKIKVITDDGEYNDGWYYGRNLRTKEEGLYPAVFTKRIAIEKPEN
Assay: SPOT array

Compared with IIIPPIPSKHSLLK [YDR425W 171-184], ILKPDIPLRNMLLR [YGL224C 138-151] is higher in normalised SPOT signal, Boehringer light units (BLU); mean over the file's lines of this peptide: 92.9 for the first, 14700 for the second.

Compared with IIFPYDPLKLGTHA [YBR163W 509-522], IFNPQNPLKTGFEP [YMR087W 156-169] is higher in normalised SPOT signal, Boehringer light units (BLU); mean over the file's lines of this peptide: 22.3 for the first, 95.5 for the second.

Going from IPTPSKPLKKRKKR [YCL027W 390-403] to IQHPFLPRKIPIIT [YGR094W 408-421], the normalised SPOT signal, Boehringer light units (BLU); mean over the file's lines of this peptide rises from 97.5 to 327.

Compared with IIKPYLPFKISKWL [YJR054W 69-82], IIFPTSPTKLTFSN [YDR130C 112-125] is higher in normalised SPOT signal, Boehringer light units (BLU); mean over the file's lines of this peptide: 37.9 for the first, 45.5 for the second.

First: IINPDTPHRRIFNQ [YBL019W 264-277]
Second: IHSPRIPSKDEFIA [YER091C 704-717]
The normalised SPOT signal, Boehringer light units (BLU); mean over the file's lines of this peptide of the first is higher: 314 for the first, 88.8 for the second.

Work on IKYPGSPQRSSSFS [YMR036C 139-152] yielded a normalised SPOT signal, Boehringer light units (BLU); mean over the file's lines of this peptide of 105.

Molecular target: T2, Yfr024 SH3 (LSB3_YEAST), P43603
T2 chain: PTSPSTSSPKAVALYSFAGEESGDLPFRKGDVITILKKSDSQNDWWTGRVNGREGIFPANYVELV
Assay: SPOT array

Going from IIIPPIPSKHSLLK [YDR425W 171-184] to ILKPDIPLRNMLLR [YGL224C 138-151], the normalised SPOT signal, Boehringer light units (BLU); mean over the file's lines of this peptide rises from 3190 to 12900.

First: IIFPYDPLKLGTHA [YBR163W 509-522]
Second: IFNPQNPLKTGFEP [YMR087W 156-169]
The normalised SPOT signal, Boehringer light units (BLU); mean over the file's lines of this peptide of the first is lower: 17.2 for the first, 170 for the second.

Compared with IPTPSKPLKKRKKR [YCL027W 390-403], IQHPFLPRKIPIIT [YGR094W 408-421] is lower in normalised SPOT signal, Boehringer light units (BLU); mean over the file's lines of this peptide: 1580 for the first, 1120 for the second.

Going from IIKPYLPFKISKWL [YJR054W 69-82] to IIFPTSPTKLTFSN [YDR130C 112-125], the normalised SPOT signal, Boehringer light units (BLU); mean over the file's lines of this peptide falls from 878 to 314.

First: IINPDTPHRRIFNQ [YBL019W 264-277]
Second: IHSPRIPSKDEFIA [YER091C 704-717]
The normalised SPOT signal, Boehringer light units (BLU); mean over the file's lines of this peptide of the first is higher: 1670 for the first, 224 for the second.

Work on IKYPGSPQRSSSFS [YMR036C 139-152] yielded a normalised SPOT signal, Boehringer light units (BLU); mean over the file's lines of this peptide of 391.

Molecular target: T3, Boi2 SH3 (BOI2_YEAST), P39969
T3 chain: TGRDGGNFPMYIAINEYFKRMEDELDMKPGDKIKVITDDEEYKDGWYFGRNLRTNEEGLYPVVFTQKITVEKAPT
Assay: SPOT array

Going from IIIPPIPSKHSLLK [YDR425W 171-184] to ILKPDIPLRNMLLR [YGL224C 138-151], the normalised SPOT signal, Boehringer light units (BLU); mean over the file's lines of this peptide rises from 50 to 60.

First: IIFPYDPLKLGTHA [YBR163W 509-522]
Second: IFNPQNPLKTGFEP [YMR087W 156-169]
The normalised SPOT signal, Boehringer light units (BLU); mean over the file's lines of this peptide of the first is lower: 12.7 for the first, 57.1 for the second.

First: IPTPSKPLKKRKKR [YCL027W 390-403]
Second: IQHPFLPRKIPIIT [YGR094W 408-421]
The normalised SPOT signal, Boehringer light units (BLU); mean over the file's lines of this peptide of the first is lower: 50.2 for the first, 192 for the second.

First: IIKPYLPFKISKWL [YJR054W 69-82]
Second: IIFPTSPTKLTFSN [YDR130C 112-125]
The normalised SPOT signal, Boehringer light units (BLU); mean over the file's lines of this peptide of the first is higher: 39.8 for the first, 13.9 for the second.

Going from IINPDTPHRRIFNQ [YBL019W 264-277] to IHSPRIPSKDEFIA [YER091C 704-717], the normalised SPOT signal, Boehringer light units (BLU); mean over the file's lines of this peptide falls from 71.9 to 42.

IKYPGSPQRSSSFS [YMR036C 139-152] gave a normalised SPOT signal, Boehringer light units (BLU); mean over the file's lines of this peptide of 38.1.

Molecular target: T4, Yhr016c SH3 (YSC84_YEAST), P32793
T4 chain: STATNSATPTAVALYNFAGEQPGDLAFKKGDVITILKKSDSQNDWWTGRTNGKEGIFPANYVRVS
Assay: SPOT array

Going from IIIPPIPSKHSLLK [YDR425W 171-184] to ILKPDIPLRNMLLR [YGL224C 138-151], the normalised SPOT signal, Boehringer light units (BLU); mean over the file's lines of this peptide rises from 204 to 2420.

Going from IIFPYDPLKLGTHA [YBR163W 509-522] to IFNPQNPLKTGFEP [YMR087W 156-169], the normalised SPOT signal, Boehringer light units (BLU); mean over the file's lines of this peptide rises from 55.6 to 122.

Going from IPTPSKPLKKRKKR [YCL027W 390-403] to IQHPFLPRKIPIIT [YGR094W 408-421], the normalised SPOT signal, Boehringer light units (BLU); mean over the file's lines of this peptide rises from 213 to 250.

Compared with IIKPYLPFKISKWL [YJR054W 69-82], IIFPTSPTKLTFSN [YDR130C 112-125] is lower in normalised SPOT signal, Boehringer light units (BLU); mean over the file's lines of this peptide: 169 for the first, 0 for the second.

Compared with IINPDTPHRRIFNQ [YBL019W 264-277], IHSPRIPSKDEFIA [YER091C 704-717] is lower in normalised SPOT signal, Boehringer light units (BLU); mean over the file's lines of this peptide: 530 for the first, 187 for the second.

IKYPGSPQRSSSFS [YMR036C 139-152] gave a normalised SPOT signal, Boehringer light units (BLU); mean over the file's lines of this peptide of 198.

Molecular target: T5, Rvs167 SH3 (RV167_YEAST), P39743
T5 chain: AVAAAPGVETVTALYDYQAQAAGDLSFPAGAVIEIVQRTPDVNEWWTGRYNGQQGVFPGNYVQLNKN
Assay: SPOT array

Compared with IIIPPIPSKHSLLK [YDR425W 171-184], ILKPDIPLRNMLLR [YGL224C 138-151] is higher in normalised SPOT signal, Boehringer light units (BLU); mean over the file's lines of this peptide: 22.6 for the first, 1640 for the second.

First: IIFPYDPLKLGTHA [YBR163W 509-522]
Second: IFNPQNPLKTGFEP [YMR087W 156-169]
The normalised SPOT signal, Boehringer light units (BLU); mean over the file's lines of this peptide of the first is higher: 82.3 for the first, 61.8 for the second.

First: IPTPSKPLKKRKKR [YCL027W 390-403]
Second: IQHPFLPRKIPIIT [YGR094W 408-421]
The normalised SPOT signal, Boehringer light units (BLU); mean over the file's lines of this peptide of the first is higher: 85 for the first, 35 for the second.

Compared with IIKPYLPFKISKWL [YJR054W 69-82], IIFPTSPTKLTFSN [YDR130C 112-125] is higher in normalised SPOT signal, Boehringer light units (BLU); mean over the file's lines of this peptide: 68.5 for the first, 84.2 for the second.

Compared with IINPDTPHRRIFNQ [YBL019W 264-277], IHSPRIPSKDEFIA [YER091C 704-717] is lower in normalised SPOT signal, Boehringer light units (BLU); mean over the file's lines of this peptide: 157 for the first, 73.2 for the second.

IKYPGSPQRSSSFS [YMR036C 139-152] was tested, and the normalised SPOT signal, Boehringer light units (BLU); mean over the file's lines of this peptide was 22.8.
